Experimental findings from patent US20140087995A1 (published 2014) are described below.

Numbered stars: 1 amine (or outer) side, 2 acyl side, 3 side chain; on linkers, the order of the positions; unused ones are H or OH. Bridge positions count the residues as written; N and C are the ends. Side chains are listed from the residue outwards. Ends that are not written are not given here. * marks the point of attachment. C20 diacid = O=C(O)CCCCCCCCCCCCCCCCCCC(=O)*; γGlu = O=C(O)[C@H](CCC(=O)[*:2])N[*:1]; AEEA = NCCOCCOCC(=O)O

In assay [1] the target is T1, rat calcitonin receptor (rat, UniProt P32214 25-516).
T1 construct: whole, on cells; also called rCTR; rat calcitonin (a) receptor
T1 sequence (looked up): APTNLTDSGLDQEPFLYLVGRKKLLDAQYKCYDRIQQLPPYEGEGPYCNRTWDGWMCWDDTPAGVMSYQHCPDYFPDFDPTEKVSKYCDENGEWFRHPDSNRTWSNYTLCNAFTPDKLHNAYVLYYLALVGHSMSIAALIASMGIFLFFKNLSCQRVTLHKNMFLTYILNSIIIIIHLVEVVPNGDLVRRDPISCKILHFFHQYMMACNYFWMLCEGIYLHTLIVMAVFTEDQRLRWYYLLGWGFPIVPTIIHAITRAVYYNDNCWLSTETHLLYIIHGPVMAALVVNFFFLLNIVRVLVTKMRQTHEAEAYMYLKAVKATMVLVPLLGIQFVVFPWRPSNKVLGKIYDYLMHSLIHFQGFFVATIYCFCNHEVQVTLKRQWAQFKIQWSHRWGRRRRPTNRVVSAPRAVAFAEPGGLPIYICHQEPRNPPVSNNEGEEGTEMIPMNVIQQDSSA
Nature of the assay: ratio of binding IC50s: rat calcitonin receptor over rat amylin receptor (reference).

The target of assay [2] is T2, human calcitonin receptor (human, UniProt P30988 25-474).
T2 construct: whole, on cells; also called hCTR; hCT
T2 sequence (looked up): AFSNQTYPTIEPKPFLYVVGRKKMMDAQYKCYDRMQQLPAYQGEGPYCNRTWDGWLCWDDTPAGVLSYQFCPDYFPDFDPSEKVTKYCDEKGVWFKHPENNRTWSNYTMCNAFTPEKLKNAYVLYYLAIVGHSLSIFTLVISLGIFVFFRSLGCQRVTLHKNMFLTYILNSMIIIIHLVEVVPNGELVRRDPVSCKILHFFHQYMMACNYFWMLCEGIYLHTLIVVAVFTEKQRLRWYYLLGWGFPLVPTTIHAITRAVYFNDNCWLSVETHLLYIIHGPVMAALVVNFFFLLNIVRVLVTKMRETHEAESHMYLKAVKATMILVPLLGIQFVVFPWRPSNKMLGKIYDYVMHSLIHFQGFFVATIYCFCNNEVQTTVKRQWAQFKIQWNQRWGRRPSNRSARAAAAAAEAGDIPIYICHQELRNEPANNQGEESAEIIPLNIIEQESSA
Briefly: ratio of binding IC50s: human calcitonin receptor over human amylin receptor (reference). How it is done: The resulting pellet was resuspended, homogenized and centrifuged (20.000 rpm, 15 min) in a buffer containing 20 mM Na-HEPES and 0.1 mM EDTA (pH 7.4, buffer 2). The resulting pellet was resuspended in buffer 2 and protein concentration was measured (BCA protein Assay, Pierce). The homogenate was kept cold during the whole procedure. The membranes were kept at −80° C. until use. The assay was performed in a 384 well Optiplate (PerkinElmer) in a total volume of 40 ul. Membranes were mixed with SPA beads. Final concentration of membranes 35 ng/μL final and SPA beads was 0.05 mg/well. Test-compounds were dissolved in DMSO and further diluted in assay buffer (50 mM Hepes, pH 7.4, 1 mM CaCl2, 5 mM MgCl₂, 0.1% OA and 0.02% Tween20). […] The final mixture was incubated with shaking at 400 rpm for 120 min at 25° C. prior to centrifugation (1500 rpm, 10 min). Samples were analyzed on TopCounter™ (Packard). The IC₅₀ was calculated using (one site binding competition analysis) GraphPad Prism5 as a measure of receptor affinity.
Membranes were prepared in the following way; the cells were rinsed with PBS and incubated with Versene for approximately 5 min before harvesting. The cells were flushed with PBS and the cell-suspension was centrifuged for 5 min at 1000 rpm. Cells were homogenized (Ultrathurrax) in a buffer containing 20 mM Na-HEPES and 10 mM EDTA (pH 7.4) and centrifuged at 20.000 rpm for 15 min. The resulting pellet was resuspended, homogenized and centrifuged (20.000 rpm, 15 min) in a buffer containing 20 mM Na-HEPES and 0.1 mM EDTA (pH 7.4, buffer 2). The resulting pellet was resuspended in buffer 2 and protein concentration was measured (BCA protein Assay, Pierce). The homogenate was kept cold during the whole procedure. The membranes were kept at −80° C. until use. Assay was performed in a 384 well Optiplate (PerkinElmer) in a total volume of 40 ul. Membranes were mixed with SPA beads.

Assay [3] addresses T1, rat calcitonin receptor. Briefly: SPA competition with 125I-calcitonin, membranes of BHK cells with rat calcitonin receptor (Assay VIII).
In assay [4] the target is T3, rat amylin receptor (rat calcitonin receptor + rat RAMP 3) (rat, UniProt P32214 25-516; Q9JJ73 23-147).
T3 construct: whole, on cells; also called rAmylin-R; rat amylin 3(a) receptor
T3 sequence (looked up) 1: T1 sequence (looked up)
T3 sequence (looked up) 2: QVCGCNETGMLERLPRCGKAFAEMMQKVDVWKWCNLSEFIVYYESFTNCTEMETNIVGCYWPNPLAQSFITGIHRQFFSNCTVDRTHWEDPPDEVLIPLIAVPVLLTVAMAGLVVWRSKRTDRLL
Nature of the assay: SPA competition with 125I-rat amylin, membranes of BHK cells with rat calcitonin receptor + rat RAMP3 (Assay VI).

B1: N^ε1-[2-[2-[2-[[(4S)-4-carboxy-4-(19-carboxynonadecanoylamino)butanoyl]amino]ethoxy]ethoxy]acetyl]-[Arg17,Pro21,Pro27,Pro28,Pro34]-h-amylin (peptide)
peptide: K([AEEA-γGlu-C20 diacid])CNTATCATQRLANFLRHSSPNFGAIPPSTNVGPNTY-NH2
modifications: disulfide 2-7; N-terminus assumed
SMILES: CC[C@H](C)[C@H](NC(=O)[C@H](C)NC(=O)CNC(=O)[C@H](Cc1ccccc1)NC(=O)[C@H](CC(N)=O)NC(=O)[C@@H]1CCCN1C(=O)[C@H](CO)NC(=O)[C@H](CO)NC(=O)[C@H](Cc1c[nH]cn1)NC(=O)[C@H](CCCNC(=N)N)NC(=O)[C@H](CC(C)C)NC(=O)[C@H](Cc1ccccc1)NC(=O)[C@H](CC(N)=O)NC(=O)[C@H](C)NC(=O)[C@H](CC(C)C)NC(=O)[C@H](CCCNC(=N)N)NC(=O)[C@H](CCC(N)=O)NC(=O)[C@@H](NC(=O)[C@H](C)NC(=O)[C@@H]1CSSC[C@H](NC(=O)[C@@H](N)CCCCNC(=O)COCCOCCNC(=O)CC[C@H](NC(=O)CCCCCCCCCCCCCCCCCCC(=O)O)C(=O)O)C(=O)N[C@@H](CC(N)=O)C(=O)N[C@@H]([C@@H](C)O)C(=O)N[C@@H](C)C(=O)N[C@@H]([C@@H](C)O)C(=O)N1)[C@@H](C)O)C(=O)N1CCC[C@H]1C(=O)N1CCC[C@H]1C(=O)N[C@@H](CO)C(=O)N[C@H](C(=O)N[C@@H](CC(N)=O)C(=O)N[C@H](C(=O)NCC(=O)N1CCC[C@H]1C(=O)N[C@@H](CC(N)=O)C(=O)N[C@H](C(=O)N[C@@H](Cc1ccc(O)cc1)C(N)=O)[C@@H](C)O)C(C)C)[C@@H](C)O
notes: synthetic analogue of human amylin; also called compound 55
For B1, in the assay with rat calcitonin receptor [1], the “Ratio rCT/rAmylin binding” value was found to be 77.2. Besides, the “Ratio hCT/hAmylin binding” value in assay [2] stood at 51.8. The IC50 – broadly, the concentration at which inhibition is half-maximal – was 6.25 nM in the assay with rat calcitonin receptor [3] and 0.081 nM in assay [4].

B2: N^ε1-[2-[2-[2-[[(4S)-4-carboxy-4-(19-carboxynonadecanoylamino)butanoyl]amino]ethoxy]ethoxy]acetyl]-[Arg17,Pro21,Pro27,Pro29,Pro34]-h-amylin (peptide)
peptide: K([AEEA-γGlu-C20 diacid])CNTATCATQRLANFLRHSSPNFGAIPSPTNVGPNTY-NH2
modifications: disulfide 2-7; N-terminus assumed
SMILES: CC[C@H](C)[C@H](NC(=O)[C@H](C)NC(=O)CNC(=O)[C@H](Cc1ccccc1)NC(=O)[C@H](CC(N)=O)NC(=O)[C@@H]1CCCN1C(=O)[C@H](CO)NC(=O)[C@H](CO)NC(=O)[C@H](Cc1c[nH]cn1)NC(=O)[C@H](CCCNC(=N)N)NC(=O)[C@H](CC(C)C)NC(=O)[C@H](Cc1ccccc1)NC(=O)[C@H](CC(N)=O)NC(=O)[C@H](C)NC(=O)[C@H](CC(C)C)NC(=O)[C@H](CCCNC(=N)N)NC(=O)[C@H](CCC(N)=O)NC(=O)[C@@H](NC(=O)[C@H](C)NC(=O)[C@@H]1CSSC[C@H](NC(=O)[C@@H](N)CCCCNC(=O)COCCOCCNC(=O)CC[C@H](NC(=O)CCCCCCCCCCCCCCCCCCC(=O)O)C(=O)O)C(=O)N[C@@H](CC(N)=O)C(=O)N[C@@H]([C@@H](C)O)C(=O)N[C@@H](C)C(=O)N[C@@H]([C@@H](C)O)C(=O)N1)[C@@H](C)O)C(=O)N1CCC[C@H]1C(=O)N[C@@H](CO)C(=O)N1CCC[C@H]1C(=O)N[C@H](C(=O)N[C@@H](CC(N)=O)C(=O)N[C@H](C(=O)NCC(=O)N1CCC[C@H]1C(=O)N[C@@H](CC(N)=O)C(=O)N[C@H](C(=O)N[C@@H](Cc1ccc(O)cc1)C(N)=O)[C@@H](C)O)C(C)C)[C@@H](C)O
notes: synthetic analogue of human amylin; also called compound 56
Turning to B2, in the assay with rat calcitonin receptor [1], the “Ratio rCT/rAmylin binding” value came out at 131. Besides, the “Ratio hCT/hAmylin binding” value in assay [2] is 42.6. The figures for the IC50 (with rat calcitonin receptor [3]; in assay [4]) were 5.26 nM and 0.04 nM, respectively.

B3: N^ε1-[2-[2-[2-[[(4S)-4-carboxy-4-(19-carboxynonadecanoylamino)butanoyl]amino]ethoxy]ethoxy]acetyl]-[Arg17,Pro21,Pro27,Pro29,Pro31]-h-amylin (peptide)
peptide: K([AEEA-γGlu-C20 diacid])CNTATCATQRLANFLRHSSPNFGAIPSPTPVGSNTY-NH2
modifications: disulfide 2-7; N-terminus assumed
SMILES: CC[C@H](C)[C@H](NC(=O)[C@H](C)NC(=O)CNC(=O)[C@H](Cc1ccccc1)NC(=O)[C@H](CC(N)=O)NC(=O)[C@@H]1CCCN1C(=O)[C@H](CO)NC(=O)[C@H](CO)NC(=O)[C@H](Cc1c[nH]cn1)NC(=O)[C@H](CCCNC(=N)N)NC(=O)[C@H](CC(C)C)NC(=O)[C@H](Cc1ccccc1)NC(=O)[C@H](CC(N)=O)NC(=O)[C@H](C)NC(=O)[C@H](CC(C)C)NC(=O)[C@H](CCCNC(=N)N)NC(=O)[C@H](CCC(N)=O)NC(=O)[C@@H](NC(=O)[C@H](C)NC(=O)[C@@H]1CSSC[C@H](NC(=O)[C@@H](N)CCCCNC(=O)COCCOCCNC(=O)CC[C@H](NC(=O)CCCCCCCCCCCCCCCCCCC(=O)O)C(=O)O)C(=O)N[C@@H](CC(N)=O)C(=O)N[C@@H]([C@@H](C)O)C(=O)N[C@@H](C)C(=O)N[C@@H]([C@@H](C)O)C(=O)N1)[C@@H](C)O)C(=O)N1CCC[C@H]1C(=O)N[C@@H](CO)C(=O)N1CCC[C@H]1C(=O)N[C@H](C(=O)N1CCC[C@H]1C(=O)N[C@H](C(=O)NCC(=O)N[C@@H](CO)C(=O)N[C@@H](CC(N)=O)C(=O)N[C@H](C(=O)N[C@@H](Cc1ccc(O)cc1)C(N)=O)[C@@H](C)O)C(C)C)[C@@H](C)O
notes: synthetic analogue of human amylin; also called compound 54
Take B3: the “Ratio rCT/rAmylin binding” value with rat calcitonin receptor [1] was found to be 179. Moreover, the “Ratio hCT/hAmylin binding” value in assay [2] turned out to be 146. Also, the half-inhibitory concentration (IC50) amounted to 8.79 nM with rat calcitonin receptor [3] and 0.049 nM in assay [4].

B4: N^ε1-[2-[2-[2-[[(4S)-4-carboxy-4-(19-carboxynonadecanoylamino)butanoyl]amino]ethoxy]ethoxy]acetyl]-[Arg17,Pro21,Pro27,Pro31,His35]-h-amylin (peptide)
peptide: K([AEEA-γGlu-C20 diacid])CNTATCATQRLANFLRHSSPNFGAIPSSTPVGSHTY-NH2
modifications: disulfide 2-7; N-terminus assumed
SMILES: CC[C@H](C)[C@H](NC(=O)[C@H](C)NC(=O)CNC(=O)[C@H](Cc1ccccc1)NC(=O)[C@H](CC(N)=O)NC(=O)[C@@H]1CCCN1C(=O)[C@H](CO)NC(=O)[C@H](CO)NC(=O)[C@H](Cc1c[nH]cn1)NC(=O)[C@H](CCCNC(=N)N)NC(=O)[C@H](CC(C)C)NC(=O)[C@H](Cc1ccccc1)NC(=O)[C@H](CC(N)=O)NC(=O)[C@H](C)NC(=O)[C@H](CC(C)C)NC(=O)[C@H](CCCNC(=N)N)NC(=O)[C@H](CCC(N)=O)NC(=O)[C@@H](NC(=O)[C@H](C)NC(=O)[C@@H]1CSSC[C@H](NC(=O)[C@@H](N)CCCCNC(=O)COCCOCCNC(=O)CC[C@H](NC(=O)CCCCCCCCCCCCCCCCCCC(=O)O)C(=O)O)C(=O)N[C@@H](CC(N)=O)C(=O)N[C@@H]([C@@H](C)O)C(=O)N[C@@H](C)C(=O)N[C@@H]([C@@H](C)O)C(=O)N1)[C@@H](C)O)C(=O)N1CCC[C@H]1C(=O)N[C@@H](CO)C(=O)N[C@@H](CO)C(=O)N[C@H](C(=O)N1CCC[C@H]1C(=O)N[C@H](C(=O)NCC(=O)N[C@@H](CO)C(=O)N[C@@H](Cc1c[nH]cn1)C(=O)N[C@H](C(=O)N[C@@H](Cc1ccc(O)cc1)C(N)=O)[C@@H](C)O)C(C)C)[C@@H](C)O
notes: synthetic analogue of human amylin; also called compound 57
Turning to B4, the “Ratio rCT/rAmylin binding” value with rat calcitonin receptor [1] turned out to be 135. Moreover, the “Ratio hCT/hAmylin binding” value in assay [2] stood at 133. The IC50 in the assay with rat calcitonin receptor [3] came out at 24.4 nM; in assay [4], 0.181 nM.
